The target in data set [1] is T1, p01 small terminase subunit (Pseudomonas aeruginosa phage PaP3) (UniProt Q8H9R5).
T1 sequence: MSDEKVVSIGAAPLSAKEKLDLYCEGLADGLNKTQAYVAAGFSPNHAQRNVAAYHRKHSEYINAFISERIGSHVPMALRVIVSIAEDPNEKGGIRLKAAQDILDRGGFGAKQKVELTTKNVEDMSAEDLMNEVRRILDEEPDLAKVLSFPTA
Description: EMSA. The note with it: 50 mM Tris-HCl pH 8.0, 50 mM NaCl, 10 mM MgCl2, 5% glycerol, 1.5 uM DNA, 37 C 30 min, stopped with 20 mM EDTA; 5% native PAGE in 0.5x TBE. A general note: A gel shift assay detects complexes by their altered migration in electrophoresis.

In data set [2] the target is T2, p03 large terminase subunit (Pseudomonas aeruginosa phage PaP3, UniProt Q8H9R7 1-482).
T2 sequence: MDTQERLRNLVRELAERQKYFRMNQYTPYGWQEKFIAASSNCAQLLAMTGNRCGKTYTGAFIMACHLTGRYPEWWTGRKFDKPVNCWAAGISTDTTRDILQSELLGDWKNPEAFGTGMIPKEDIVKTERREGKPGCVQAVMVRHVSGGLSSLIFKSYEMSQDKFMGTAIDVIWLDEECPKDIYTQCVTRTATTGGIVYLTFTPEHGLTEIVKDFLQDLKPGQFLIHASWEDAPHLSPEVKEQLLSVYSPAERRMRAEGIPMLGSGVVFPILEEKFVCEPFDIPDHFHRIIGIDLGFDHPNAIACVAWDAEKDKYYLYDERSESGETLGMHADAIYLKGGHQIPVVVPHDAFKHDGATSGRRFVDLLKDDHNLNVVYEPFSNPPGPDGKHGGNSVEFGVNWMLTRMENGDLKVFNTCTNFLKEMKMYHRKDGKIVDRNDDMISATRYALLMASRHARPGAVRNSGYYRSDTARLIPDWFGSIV
The data set can be described thus: EMSA; 10 mM Mg2+; 0.4 uM p03; 50 mM Tris-HCl pH 8.0, 50 mM NaCl, 10 mM MgCl2, 5% glycerol, 1.5 uM DNA, 37 C 30 min, stopped with 20 mM EDTA; 5% native PAGE in 0.5x TBE. The note with it: protein: recombinant; tags: C-terminal His6 (pET-22b); label: 5'-biotin; blunt.

Data set [3] has as its target T2, p03 large terminase subunit. Description: EMSA; 10 mM Mg2+; 50 mM Tris-HCl pH 8.0, 50 mM NaCl, 10 mM MgCl2, 5% glycerol, 1.5 uM DNA, 37 C 30 min, stopped with 20 mM EDTA; 5% native PAGE in 0.5x TBE. The settings on record: protein: recombinant; tags: C-terminal His6 (pET-22b); label: 5'-biotin; blunt.

Consider “ATACTCCCCGTCGCGCTTGAACCACGGGGTCTGTCAATTGATTGCGCTGGGACAGGCTACCAGTCGGGCCTTCTATGGTACAAGGCCAGGACCTACGCTCTTTCGGAGTGTGCGTTATTCCCTCAGCTTTCGGGTTTCTCCCTTGTTCAGTCCAAGGACCGTCGAAGGTACACTTTCCCCAGGTGGCCGTCACCTGATGGGTGCCCATGTTAGAGCCGTGGGCTTGCCTTGTCAACCCT (double strand) [cos239dn]”, for which the binding result in data set [1] is on record as “no binding”.

B1: 20-bp cos end sequence (dsDNA)
DNA 1: GCCGGCCCCTTTCCGCGTTA
DNA 2: TAACGCGGAAAGGGGCCGGC
B1: the binding result in data set [2] is “binds”.

B2: 24-bp non-cos DNA (dsDNA)
DNA 1: GCACTGCAGTAACTTGTCAGTCAT
DNA 2: ATGACTGACAAGTTACTGCAGTGC
As for B2, the binding result in data set [3] is recorded as “no binding”.

For the origin of these results see PMC3488191, “Functional identification of the DNA packaging terminase from Pseudomonas aeruginosa phage PaP3”.
